Data taken from the MegaScale stability set (Tsuboyama et al. 2023).

B1: HHH_rd1_0493 (parent)
chain: RDEDEKEKIKEALKRGNEDKAKEIAKRANVSPEEYERLRKEAE
B2: EHEE_rd3_0053 (parent)
chain: TYTFKVDNKDQAKKAAKWAKKLGLSFQIEKHGDTFKITVQ

Variants of: B1
Experiment: folding stability dG (cDNA display proteolysis); higher = more stable
Conditions: PBS, room temperature

Variant	folding stability dG [kcal/mol]
E34V	1.81
G16V	0.445
K14V	2.33
A25M	1.88
R37F	2.15
K40G	2.62
K10E	0.847
N29M	2.51
I9C	1.26
V30S	0.63
K22Q	2.86
E43Y	3.29
E33L	2.27
E7P	1.58
K26D	2.71
E41V	2.15
K10H	0.938

Variant	folding stability dG [kcal/mol]
N29A	2.34
A12D	0.746
K22H	2.46
K8D	2.25
I24K	0.623
R15Q	3.39
D19I	2.95
E5R	2.1
K8I	2.1
A21E	0.568
K26H	2.74
I9D	0.479
Y35D	0.022
V30L	3.09
E33A	2.69
E36L	2.24
A25G	1.3

Variants of: B2
Experiment: as above
Conditions: PBS, room temperature

Variant	folding stability dG [kcal/mol]
T1A	2.38
T1C	3.57
T1D	1.93
T1E	2.25
T1F	2.42
T1G	2.42
T1H	2.3
T1I	2.51
T1K	2.46
T1L	2.21
T1M	2.37
T1N	2.17
T1P	2.15
T1Q	2.34
T1R	2.45
T1S	2.62
T1V	2.43
T1W	2.67
T1Y	2.64
Y2A	1.23
Y2C	3.58
Y2D	0.593
Y2E	0.685

Variant	folding stability dG [kcal/mol]
Y2F	2.57
Y2G	0.704
Y2H	1.95
Y2I	2.27
Y2K	1.59
Y2L	2.25
Y2M	2.08
Y2N	0.999
Y2P	0.617
Y2Q	1.17
Y2R	1.97
Y2S	1.18
Y2T	1.42
Y2V	2.01
Y2W	2.7
T3A	1.79
T3C	2.98
T3D	1.34
T3E	2.15
T3F	2.2
T3G	0.986
T3H	2.1
T3I	2.43

Variant	folding stability dG [kcal/mol]
T3K	1.46
T3L	1.39
T3M	1.99
T3N	1.43
T3P	0.945
T3Q	1.95
T3R	1.6
T3S	2.34
T3V	2.49
T3W	2.67
T3Y	2.27
F4A	0.455
F4C	3.42
F4D	-0.075
F4E	0.316
F4G	0.271
F4H	0.581
F4I	1.79
F4K	0.404
F4L	1.38
F4M	1.23
F4N	-0.163
F4P	0.467

Variant	folding stability dG [kcal/mol]
F4Q	0.162
F4R	0.333
F4S	0.126
F4T	0.349
F4V	1.2
F4W	2.38
F4Y	1.69
K5A	2.54
K5D	2.34
K5E	2.93
K5F	3.77
K5G	1.89
K5H	3.07
K5I	3.47
K5L	3.2
K5M	3.24
K5N	2.79
K5P	1.7
K5Q	2.9
K5R	2.22
K5S	2.96
K5T	3.28
K5V	3.31

Variant	folding stability dG [kcal/mol]
K5W	3.77
K5Y	3.89
V6A	1.62
V6D	-0.058
V6E	0.257
V6F	2.32
V6G	0.437
V6H	0.343
V6I	1.89
V6K	0.315
V6L	2.32
V6M	1.68
V6N	-0.311
V6P	0.243
V6Q	0.045
V6R	0.551
V6S	1.03
V6T	2.1
V6W	1.28
V6Y	1.92
D7A	2.71
D7C	3.29
D7E	2.37

Variant	folding stability dG [kcal/mol]
D7F	2.83
D7G	2.45
D7H	2.58
D7I	2.27
D7K	2.77
D7L	2.4
D7M	2.51
D7N	2.62
D7P	2.27
D7Q	2.61
D7R	2.68
D7S	2.66
D7T	2.47
D7V	2.33
D7W	2.66
D7Y	2.78
N8A	1.27
N8D	2.02
